Legend:
[1] = tested on: VWF-034 (VWF D′D3-288XTEN-LVPR-Fc fusion construct)
[2] = tested on: VWF-055 (VWF D′D3-Fc fusion construct; 34 aa VWF linker comprising an a2 region from FVIII)
Chain of VWF-055 (VWF D′D3-Fc fusion construct; 34 aa VWF linker comprising an a2 region from FVIII) (chain, as listed by the source): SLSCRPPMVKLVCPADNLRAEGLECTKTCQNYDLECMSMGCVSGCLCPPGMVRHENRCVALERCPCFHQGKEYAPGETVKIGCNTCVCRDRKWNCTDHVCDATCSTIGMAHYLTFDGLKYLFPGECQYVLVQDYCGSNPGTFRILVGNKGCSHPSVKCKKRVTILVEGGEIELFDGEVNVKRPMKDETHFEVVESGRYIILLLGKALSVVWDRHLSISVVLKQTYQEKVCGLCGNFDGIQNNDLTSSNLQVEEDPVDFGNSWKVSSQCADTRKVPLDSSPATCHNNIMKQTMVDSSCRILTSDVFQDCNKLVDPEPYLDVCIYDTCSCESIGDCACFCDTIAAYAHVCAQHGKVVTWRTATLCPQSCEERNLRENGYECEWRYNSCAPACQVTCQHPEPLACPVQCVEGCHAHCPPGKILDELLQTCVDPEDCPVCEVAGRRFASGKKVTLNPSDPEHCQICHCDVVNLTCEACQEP

Chain of VWF-034 (VWF D′D3-288XTEN-LVPR-Fc fusion construct) (chain, as listed by the source): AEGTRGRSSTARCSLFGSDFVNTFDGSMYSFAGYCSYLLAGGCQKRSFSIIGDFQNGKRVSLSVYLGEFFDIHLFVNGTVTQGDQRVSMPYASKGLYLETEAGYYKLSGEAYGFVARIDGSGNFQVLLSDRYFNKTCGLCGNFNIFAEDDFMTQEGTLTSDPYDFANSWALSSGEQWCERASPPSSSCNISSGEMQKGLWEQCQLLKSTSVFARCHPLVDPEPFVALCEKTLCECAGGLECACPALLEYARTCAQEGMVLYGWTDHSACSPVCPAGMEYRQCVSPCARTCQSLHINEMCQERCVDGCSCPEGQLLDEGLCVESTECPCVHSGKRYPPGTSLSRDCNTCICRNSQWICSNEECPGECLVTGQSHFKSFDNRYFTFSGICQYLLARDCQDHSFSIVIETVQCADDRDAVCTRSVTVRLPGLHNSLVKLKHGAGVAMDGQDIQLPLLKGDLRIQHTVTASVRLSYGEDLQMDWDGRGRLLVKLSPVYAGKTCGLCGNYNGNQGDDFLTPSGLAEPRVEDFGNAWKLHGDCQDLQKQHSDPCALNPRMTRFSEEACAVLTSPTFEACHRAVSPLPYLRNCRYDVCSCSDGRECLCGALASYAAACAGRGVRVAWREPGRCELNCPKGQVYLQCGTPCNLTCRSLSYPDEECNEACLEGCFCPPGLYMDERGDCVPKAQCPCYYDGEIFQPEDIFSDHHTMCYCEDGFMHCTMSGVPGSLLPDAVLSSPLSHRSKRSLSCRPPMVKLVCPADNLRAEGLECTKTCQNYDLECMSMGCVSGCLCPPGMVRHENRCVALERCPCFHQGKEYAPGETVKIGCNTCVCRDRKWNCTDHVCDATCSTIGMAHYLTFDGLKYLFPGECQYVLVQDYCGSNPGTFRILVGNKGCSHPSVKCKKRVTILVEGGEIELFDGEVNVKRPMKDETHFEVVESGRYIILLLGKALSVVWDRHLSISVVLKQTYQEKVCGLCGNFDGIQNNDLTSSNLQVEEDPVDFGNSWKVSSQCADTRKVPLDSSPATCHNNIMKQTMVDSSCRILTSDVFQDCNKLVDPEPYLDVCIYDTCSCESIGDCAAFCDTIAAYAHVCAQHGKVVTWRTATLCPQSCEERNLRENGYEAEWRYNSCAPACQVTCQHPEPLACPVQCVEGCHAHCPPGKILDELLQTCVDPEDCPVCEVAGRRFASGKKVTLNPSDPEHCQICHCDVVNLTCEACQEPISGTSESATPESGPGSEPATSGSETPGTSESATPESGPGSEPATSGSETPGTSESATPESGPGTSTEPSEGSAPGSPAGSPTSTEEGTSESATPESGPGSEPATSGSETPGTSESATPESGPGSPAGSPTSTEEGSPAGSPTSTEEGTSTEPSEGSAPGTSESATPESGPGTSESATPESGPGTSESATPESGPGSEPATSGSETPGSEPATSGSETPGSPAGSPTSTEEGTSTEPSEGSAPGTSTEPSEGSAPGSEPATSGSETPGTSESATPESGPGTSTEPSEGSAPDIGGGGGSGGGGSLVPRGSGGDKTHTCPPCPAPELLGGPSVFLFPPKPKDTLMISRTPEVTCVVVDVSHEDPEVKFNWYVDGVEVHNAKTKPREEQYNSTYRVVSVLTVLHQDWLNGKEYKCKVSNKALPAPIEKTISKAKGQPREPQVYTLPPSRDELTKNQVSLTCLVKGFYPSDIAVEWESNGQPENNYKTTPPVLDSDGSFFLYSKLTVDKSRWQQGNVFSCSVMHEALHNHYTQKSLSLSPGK

human alpha-thrombin
thrombin cleavage rate relative to VWF-031 (Biacore) [1]: displayed slower cleavage compared to VWF-031
thrombin cleavage relative to VWF-039 (Biacore) [2]: displayed similar thrombin cleavage as VWF-039 construct

Source: US20160251408
